The nature of this data set: soluble on expression in E. coli; label from the status in PepcDB or PDB records.
Consider “MNMDFNLFMNDIVRQARQEITAAGYTELKTAEEVDEALTKKGTTLVMVNSVCGCAGGIARPAAYHSVHYDKRPDQLVTVFAGQDKEATARARDYFEGYPPSSPSFAILKDGKIMKMVERHEIEGHEPMAVVAKLQEAFEEYCEEV”, for which the “soluble on expression in E. coli” value was “not soluble”.

For the sequence “MNMFNRKAKQEVTKKPEASNGSKNSKSTFVNSKSPNQKRREVKKSDSDTESSHKNTRRTKPVPVPAASSNSKGSNEKHKRKSVQQVVKKVVNHIPFSPSKQPKSTSTPPVSEGNRKRLAMADVSINQLESEMDSFVKKIEPNERRATQYIHSNSLSRSNEAVPPGNVKTSQQKADHHLIRTTRSLIGLDGETEAVYSKATKASPDKGKLTADSPSSRRTSKSLEENSSETTNDSISLADDEETREAYRKLFKDFAMSSQKMTLDDFKQEFSNLPGDPPSDLCTVFNHPVNNKKNRYSNIPCLDISRVQLKFKMPNKNSTDYIHANYIRSPFLKRGYILTQGPKKETRADFWRMIWQENTTAIVMLCQFLETNREKCAEYFPRNAHCCLQFDKFSVNYEDSTVNKSLVTTRLNLSYEGETRLITHWLWKEWPDWQVPESSEVMLKILRKIRARSTPPVIHCSAGVGRSGTLMAVEIALQSIHTHFTLPDIKQIVSHLRVTGRAASVQTLQQYMLIWKVLLDFGVAYKQITEELAEKFNSTYRRSLRSINGT”, the “soluble on expression in E. coli” value is “not soluble”.

In the case of “MNMSRHDEFGGSTNKGPVQEHDVIMRGRRLLDITGVKQVESFDNEEFLLETVMGFLAIRGQNLQMKNLDVDKGVVSIKGRIFDLVYLDDHQEKAKGFFSKLFK”, the “soluble on expression in E. coli” value is reported as “not soluble”.

Turning to “MNNFTYEKLHNNLQYLKLNTIEELLDNCLEIAARDSKTTMEVLDYLFEQEKKHREAAAIERRMKSAGFPVKKMLEEFDFEFQSSINKKVIEDLATLRFVHNAENIVLLGPPGVGKSHLAIALGIEAVKAGISVHFTNTGNLIERLKIANREGILEKKIRDLMKFKVLIIDEIGYLPFDDEGAHCLFQLISRRYEKSSTILTSNKSYGEWGEIFKDHVIAAALLDRILHHCTTINIKGESYRLKERKKQGIKTGLIRHNSTEILENLEHHHHHH”, the “soluble on expression in E. coli” value is recorded as “soluble”.

As to “MNNGTVKWFNAEKGFGFIEQENGGDVFVHFSGIASDGYKTLEEGQKVTFEITEGQRGDQAVNVQTV”, the “soluble on expression in E. coli” value is “not soluble”.

As for “MNNHNCFLTPLQQKFMQILSDYERDPKSIQIHEESDQMDVVISYFKLLLAEKSRLLQYGQANFSVHLIDEEIGRLFMAPISMADIGILEECGREALRFTDLGAMFSDSDDSMHSDEDEVTLTESIRIPVETYPTYNFIGRIIGPRGTTAKQLEKDTGCRIMIRGNHSNKMYGNALHKTHGDGSQDAIDLPLRVIVETSGPRREATARITAALETVQVLLVPPPDGRDELKRRQLVELAIMNGTYRPSCSRIDHN”, the “soluble on expression in E. coli” value is on record as “not soluble”.

Take “MNNHSNKHWHLQMYLPEGKKGVQIRSEDMLKEPQPVIGTGEWNNRQCQDFKELHIGTIILVREGKKAIALCEVTSGCYTDKELHEKYRHSNFRNVKVLDFIAEKDQPPPRLFSQGTLKSCGEWTHQWEYIDKLISLMDKNNPIEEYSQLKEYAQLLESKKNIILQGAPGTGKTYTTASIAVHMCNKNFTDYTDHSKVIEEYERLRDTGQIAFCTFHQSMDYEDFVEGLKPEVKSNNVEYNVENGIFKSICEQAKTKEEADIITCIDKYLQSIKGYENKKKIPTISGRSDLWVWWIEGNDTISTRSAISKSEKGEQYSLSPLNIEKVKLQAIGEAIENNWRQYAQAFINAVKKEYQLDKQISDKPYVLIIDEINRGNVSKIFGELITLLEADKRSGAGSDSNHCISLILPYSKENFSVPSNLYIIGTMNTTDRSTGTIDYAVRRRFAFVTLKSSDKVIKEYAEKQSVEDNVRDASLALFTQINGNLKNDKESFIAKHKAADFELEDLKVGHSYFMAKDIDMLKMKMRYEVVPLIKEYIKDGILRGMQGDESYFEKWMNAECFHQSEPTTNDN”: the “soluble on expression in E. coli” value is given as “not soluble”.

On to “MNNQLTEITVVRRQSAPRLEFEAAAIYEYPEHLRPFLSEAPALPGVYIFHSESDTLPLYIGKSVNIRSRVLSHLRTPDEATMLRQARRISWICTAGEMGALLLEARLIKEQQPLFNKRLRRNRQLCSLQLSEQKIEVVSARSVDFSHEPNLFGLFANRRAALQSLQNLADEQKLCYGLLGLEPVSRGRACFRFALKRCAGACCGQETPQAHFLRLQASLERLRVVCWPWKGAIALKESRPQMTQFHIINNWLWLGAVPSLDEAATLVRTPAGFDQDGYKILCKPLMSGQYEIIELHTDCRQS”, for which the “soluble on expression in E. coli” value is given as “not soluble”.

For the sequence “MNNRSAVRILRLPAVIQKTGMARATIYDWLNPKSPRYDATFPKKRMLGVKSVGWIEAEIDEWLSQRCKLI”, the “soluble on expression in E. coli” value is listed as “soluble”.

As to “MNNVIIIGGGIAGLCAAISLQKIGLDVKVYDKNTEPTVAGAGIIIAPNAMQALELYGISKKIKKFGNESDGFNLVSKKGTTFNKLIIPTCYPKMYSIHRKDLHQLLLSELKEDTVKWGKECVKIEQNEENALKIVFQDGSEALGNILIAADGIHSIVRKQVTQGDNYRYAGYTCWRGVTPTKNLSLTNDFIETWGTNGRFGIVPLPNNEVYWYALINAKARDPKYKAYTTTDLYNHFKTYHNPIPSILQNASDIDMIHRDIIDITPMKQFFDKRIVFIGDAAHALTPNLGQGACQAIEDAIILAECIKNNAYYRQAFTEFEQKRRDRIEKISNTAWKVGKIAQIESKPLTIVRNKVMKRIPKWISERQAHELYRFHL”, the “soluble on expression in E. coli” value was “not soluble”.

As for “MNNYIDLAKTYGGFTSLDTNYLNHLLASLTDQQKLAFITPPPSVINAYFAEIYQKQSPQAATDYYFNLSKALGLFTDQPSFEEEKPFVRLNLSGKAYGFAYQNDQEVALVFSEKAEPKKPELFFELTQIFPQYMVYEDKGQLKMQAKQFEQGECEDITPDDTLLSKIYRLANGITMLKGFNVEELWALSQTFSGQKYYDFAQREFMIYITQ”, the “soluble on expression in E. coli” value is reported as “not soluble”.

Consider “MNPASPFATLTDRIDWQKVDGLVPAIVQDFQSSQVLMMGYMNPEALQKTLDTQQVTFFSRSKQRLWTKGETSGHVLQLKNIALDCDQDTLLVKVNPIGPTCHTGTVTCWDGDAQEESQMVWLHQLEQLLAERKNADPSSSYTASLYARGTKRIAQKVGEEGVEVALAATAGDKEELICESADLMYHLLVLLQEQGLAMNDVINKLKERHK”, for which the “soluble on expression in E. coli” value is given as “not soluble”.

Consider “MNPEKNLYPYTQESSLEQALNFEIAQVWHTRSEGTYRSFDKTHIYWCSLKHPEHQKAVVIVNGRIESAWKYQELCYDLFRQGFDVYTYDHRGQGRSERLTEDRQIGHVHEFQDYVTDLKALVEHFDLGHYQERFLLAHSMGGAIATRYIQTTPAHPFSALALSAPMFGVNMPWYLRPWALLITQIMAAVTLKPSYAPGYGPYHAKPFHLNLLTHSETRYQLFRELYEAHPELQIGGPSHRWVWQSLMATKQCLQLTRQIKIPMLILQAGEEAIVCNRAQIRLFKKLSRTQKRAALCRIAGARHELLFEQDAYRNQTLDHILRFFADSTIDHKRQHHRP”, for which the “soluble on expression in E. coli” value was “not soluble”.

Turning to “MNPNFLDFEQPIADLQAKIEELRLVGNDNSLNIGDEISRLQDKSKTLTESIFGNLTSWQIARMARHPRRPYTLDYIENIFTEFDELHGDRHFSDDAAIVGGIARLDNQPVMIIGHQKGREVREKVRRNFGMPRPEGYRKACRLMEMAERFKMPILTFIDTPGAYPGIDAEERNQSEAIAWNLRVMARLKTPIIATVIGEGGSGGALAIGVCDQLNMLQYSTYAVISPEGCASILWKTAEKAPDAAEAMGITADRLKGLGIVDKVIAEPLGGAHRDPVAAAALIREELSSQLAMLKAFDNDALLARRYDRLMSYGL”, the “soluble on expression in E. coli” value was “not soluble”.

As for “MNQAFKALADPTRRKILDLLKEGDLTAGEIAEHFNMTKPSISHHLNALKNAELIQDEKKGQFVMYSLNTTVFQDLLTWVFTFTNKGEEGK”, the “soluble on expression in E. coli” value is recorded as “not soluble”.

Consider “MNQKDVKLTVFSSDEKSFMVTATLVEKAGHAFLINSKFTQSDSKEIVEYLKKNNLSLDKIFIIHGDPDYYFGLESIKAVYPEAIAYATESTVEHIVHSVLGKLKVWKDALGENAPSNVVLPQVFKEKAIDFQGLTFELVGLEHYRTSLFNKELKVLIGGIDVFNEIHVFLADTSSKAAMEAWIENLKVLQALHADIIVPSHGSIEKSLNNQALTATMDYLRTAVQASEESGTSKDFVAKLEAAYPDYANKGVLELSAKVVTKELEHHHHHH”, for which the “soluble on expression in E. coli” value is “not soluble”.

Take “MNQKLLKLENLLRFHTICRQVHSPSQRRLLAWCRHGFAPASSVWRDLLGARSWQTDMLIGSALHQHRLLVTKKEKRPPRSQLSPVKTKKEVEVWVGMTVEDLASAMAKDIDCVYEALLNTAIDVDSLEANSHLDEVWIKEVIKKAGMKLKWSKLKQERIRENKDAVRRPGTDPALLKPRSPVVTVMGHVDHGKTTLLDKLRETQVAAMEVGGITQHIGAFLVSLPSGEKITFLDTPGHAAFSAMRARGAQVTDIVVLVVAADDGVMKQTVESIQHAKDAEVPIILAINKCDKTDADPEKVKKELLAYDVVCEEYGGDVQAVHVSALTGDNLMALAEATIALAEILELKADPTGPVEGTVIESFTDKGRGPVTTAIIQRGTLRKGSILVAGKSWAKVRLIFDENGKILNEAYPSMPVGIIGWRDLPSAGDEILEVESEPRAREVIEWRKSEQKEEKGKDDLKIMEEKRREHQEAHRKAREKYGSLHWKERSYIKFLERKQQRPLKPKEKVERQSNVLPIIIKGDVDGSVEAILNLLDTYDASHECELELVHFGLGDISENDVTFAETFDGVIYGFNVEAGSAIQQSAAQKGVKIKLHKIIYHLIEDLQEELSSRLPHTLEEYPIGEASILATFTVTEGKKKIPVADCRVQKGQLERHKKFKLIRNGQVIWKGSLTSLKHHKDDISVIKTGMDCGLSLDEEKVEFKPGDQVICYEENKVPTKTSWDPGF”: the “soluble on expression in E. coli” value is on record as “soluble”.

“MNQKMIIGNAEAICLPELGITHLEARIDTGAQTSSLHVDNIDCFEKDGQSYVAFDLHPDVYHLEQVVRCTAKLKANRKVKSSNGTFEHRCVITTMLRLGDQEWPIDITLTNREKMTYMMLLGRQGMADKVLVDPSQSHLLAS”: the “soluble on expression in E. coli” value is given as “not soluble”.

As to “MNQKYILSANNNSLIEEIHNTVQSIGYCIVRGLNLNHLDGSRRNKKLFDFLSQLGMLTNHKGDGFKSIFWDIKY”, the “soluble on expression in E. coli” value is recorded as “not soluble”.

Take “MNQLVCPLCCETLKEEGAHFYKHFKYKRYACGESTCDMGFYTQQELNAHCSKHGHKRSFQKTVNPYIDKMISVVVEDAYALATDDMETVLEKRWGRDPRSVSPTSPVKKTPTDSAKNKRSSVVTPTSPPVPKKAKSGTSTTSPFAFLNRRTNNSESSLCPNASSTSAQPASSSSAQAIVDSTTSEHNISIDKTKKPRKKRNESMTAAQNQEKAGKNANYDEMSAIDKLIGWFDPNVPERRDAAKVKCAVCNEEIVYDFILRKGHVTRSHMAADVAPEDYDDLLKTAMDRSYPDLPNSDLACQLCMTGAEVRKNMRREHIEKLHTTSLPPLTCPVGECEKGFRRQCDLSSHMKDTHKASMAVYKNATFQQVRRRRNAMINEMINKCFPWSRLEAIENKTVVGEKSDSVNRAPVDRSFDTDVRVRDVNKTRRAPQYNANRSSSSDSDSEHEEAASVATGEVSETGGTDDFPQDVIYICHQFNTEVAQKLSQIVRIKPEIIDVEDVLMNDVTMEINEIPVKEETEEEQPKEENNSTLPSIPIPSIFSPYEPIVPPPATSPDPMNPPIASLLPTRILSATNVLENKYNENVSSRRSTSRERSSNRNYDERWSRNDYSNPRNYSNRSFHQRNQRGHSSSNRFNSPFVSRNNYNNNSETTEGSSRRSEYNSSSSNHHSRSSYRGNRDDRGSRW”: the “soluble on expression in E. coli” value is recorded as “not soluble”.

As for “MNQQTYAFTLEMEVRDYECDMQGIVNNSVYQNYLEHARHVYLKTVGIDFKEFTERGINLVVVRAELDYKLPLQSGDRFRVGLNMVRQSPLRFAFYQDILRLPDMKPAVKARIIGTALNGRGRPEIPAELEALMQPGELEHHHHHH”, the “soluble on expression in E. coli” value is listed as “soluble”.

Source of the values: the DeepSol protein solubility set.
